Results: patent US6506881B1, “Anti-HMFG antibodies and processes for their production” (Celltech R&D Limited, priority 1991, dated 2003)

Assays:
[1] = system: polymorphic epithelial mucin (PEM); test: Direct binding ELISA on PEM-coated microwell plates, transiently expressed antibodies; parameters: species or system human; conditions: from all direct binding assays (FIG. 22, 23)
Method: Direct binding ELISA assays for determining the binding activity of the transiently expressed antibodies were carried out as follows.
An affinity column was prepared by attaching the CTM01 MAb to a suitable chromatographic medium in conventional manner. In a first method, pooled human urine samples were applied directly to the affinity column. In a second method, human milk was subjected to low speed centrifugation to separate the cream from skimmed milk. The skimmed milk was then subjected to high speed centrifugation to produce an aqueous and a lipid component. The aqueous component was applied to the affinity column.
Once the affinity column was loaded, by either of the two methods, column fractions were eluted at high and low pHs, neutralised and assayed for reactivity with the CTM01 MAb. Fractions showing reactivity were pooled and dialysed.
Microwell plates were coated with PEM obtained as described above. The microwells were then incubated with serial dilutions of culture supernatants.
Direct binding assays were carried out on the culture supernatants produced by the doubly transfected cell lines.

[2] = system: MCF-7 breast carcinoma cells; test: In vitro cell binding and internalisation of 125I-labelled antibody, MCF-7; format: cell-based; conditions: MCF-7 cells; 125I-labelled antibody at 2 μg/million cells; continuous exposure
Method: (§1) Antibody, purified from the supernatant of each cultured cell line by protein-A sepharose chromatography was radiolabelled (^125I) and incubated using a conventional continuous exposure method with either MX-1 or MCF-7 breast carcinoma cells. Radiolabelled murine CTMO1 was used in all tests as a comparison. All antibodies were incubated at 2 μg/million cells. The total binding of antibodies to the cells and the peak net uptake of the antibodies by the cells was determined.

[3] = system: MX-1 breast carcinoma cells; test: In vitro cell binding and internalisation of 125I-labelled antibody, MX-1; format: cell-based; conditions: MX-1 cells; 125I-labelled antibody at 2 μg/million cells; continuous exposure
Method: as §1

B1: gL1gH2: CDR-grafted light chain gL1 with CDR-grafted heavy chain gH2, transiently expressed (antibody, V domains shown)
VH: QIQLVQSGAEVKKPGSSVKVSCKASGYTFTDYYINWMRQAPGQGLEWIGWIDPGSGNTKYNEKFKGRATLTVDTSTNTAYMELSSLRSEDTAFYFCAREKTTYYYAMDYWGQGTLVTVSS
VL: DIQMTQSPSTLSASVGDRVTITCRSSKSLLHSNGDTFLYWFQQKPGKAPKLLMYRMSNLASGVPSRFSGSGSGTEFTLTISSLQPDDFATYYCMQHLEYPFTFGQGTKVEVKR
order of binding activity of antibodies produced by transient expression [1]: cLcH3>gL1ch=gL1gH2>cLgH2=gL2H2=gL1gH1=gL2cH>gL2gH1

B2: hu1:CTMO1: CDR-grafted humanised CTMO1, gL1 light chain, gH2 heavy chain, human IgG2 constant domains, from NSO cells (antibody, V domains shown)
VH: QIQLVQSGAEVKKPGSSVKVSCKASGYTFTDYYINWMRQAPGQGLEWIGWIDPGSGNTKYNEKFKGRATLTVDTSTNTAYMELSSLRSEDTAFYFCAREKTTYYYAMDYWGQGTLVTVSS
VL: DIQMTQSPSTLSASVGDRVTITCRSSKSLLHSNGDTFLYWFQQKPGKAPKLLMYRMSNLASGVPSRFSGSGSGTEFTLTISSLQPDDFATYYCMQHLEYPFTFGQGTKVEVKR
Peak Net Uptake (molecules/cell) [2]: 150,000 molecules/cell | Total Binding, 0° (molecules/cell) [2]: 650,000 molecules/cell | Peak Net Uptake (molecules/cell) [3]: 150,000 molecules/cell | Total Binding, 0° (molecules/cell) [3]: 1,200,000 molecules/cell

B3: gL1gH1: CDR-grafted light chain gL1 with CDR-grafted heavy chain gH1 (antibody, V domains shown)
VH: QIQLVQSGAEVKKPGSSVKVSCKASGYTFTDYYINWMRQAPGQGLEWMGWIDPGSGNTKYNEKFKGRVTITVDTSTNTAYMELSSLRSEDTAFYFCAREKTTYYYAMDYWGQGTLVTVSS
VL: DIQMTQSPSTLSASVGDRVTITCRSSKSLLHSNGDTFLYWFQQKPGKAPKLLMYRMSNLASGVPSRFSGSGSGTEFTLTISSLQPDDFATYYCMQHLEYPFTFGQGTKVEVKR
order of binding activity of antibodies produced by transient expression [1]: cLcH3>gL1ch=gL1gH2>cLgH2=gL2H2=gL1gH1=gL2cH>gL2gH1

B4: hu:CTMO1: CDR-grafted humanised CTMO1, gL1 light chain, gH2 heavy chain, altered human IgG4 (IgG4P) constant domains (antibody, V domains shown)
VH: QIQLVQSGAEVKKPGSSVKVSCKASGYTFTDYYINWMRQAPGQGLEWIGWIDPGSGNTKYNEKFKGRATLTVDTSTNTAYMELSSLRSEDTAFYFCAREKTTYYYAMDYWGQGTLVTVSS
VL: DIQMTQSPSTLSASVGDRVTITCRSSKSLLHSNGDTFLYWFQQKPGKAPKLLMYRMSNLASGVPSRFSGSGSGTEFTLTISSLQPDDFATYYCMQHLEYPFTFGQGTKVEVKR
Peak Net Uptake (molecules/cell) [2]: 90,000 molecules/cell | Total Binding, 0° (molecules/cell) [2]: 450,000 molecules/cell | Peak Net Uptake (molecules/cell) [3]: 150,000 molecules/cell | Total Binding, 0° (molecules/cell) [3]: 1,100,000 molecules/cell
